Test results published in patent publication US20060241067A1, “Methods For inhibiting angiogenesis, cell migration, cell adhesion, and cell survival” (priority 2002, published 2006).

System: Human umbilical vein endothelial cells (HUVEC)
Experiment: Endothelial cell migration assay (transwell) on ECM substrates
Type: cell-based
Conditions: inventors' data, no details given
Procedure: Human umbilical vein endothelial cells (HUVEC) were grown in Endothelial Growth Medium (containing 2% fetal bovine serum, bFGF and VEGF) (Clonetics, San Diego, Calif.). To render HUVECs quiescent for Rac and/or Rho assays, monolayers of endothelial cells were incubated for 18 hrs in Endothelial Basal Medium supplemented with 0.1% serum (Clonetics). Cell migration and adhesion assays on ECM substrates were performed as previously described in Kim et al. (S. Kim et al., Amer. J. Biol. Chem., 275:33920-33928 (2000); and S. Kim et al., Amer. J. Path., 156:1345-1362 (2000)).
Migration assays were performed essentially as described (Kim, et. al., 2000). […] HUVECS (25,000) were added to the upper chamber of inserts in migration buffer (Hepes buffered M199 medium containing 1% BSA, 2 mM MgCl2, 2 mM CaCl2 and 0.2 mM MnCl2) containing 25 μg/ml of various antibodies. In some experiments, 250 μM dibutyryl cAMP was placed in the upper and lower chambers of the transwell. Cells were allowed to migrate from the upper to the lower chamber for four hours at 37° C. The number of cells which had migrated were counted in three representative high power (200×) fields per insert. The data are presented as number of cells migrating+/−standard error of the mean. […] In this case, migrated transfected cells were identified by fluorescent microscopy and counted.

B1: Csk: enzyme that phosphorylates Src on Tyr 527 and inhibits its activity (protein, UniProt P41240 2-450, looked up)
Tyrosine-protein kinase CSK: SAIQAAWPSGTECIAKYNFHGTAEQDLPFCKGDVLTIVAVTKDPNWYKAKNKVGREGIIPANYVQKREGVKAGTKLSLMPWFHGKITREQAERLLYPPETGLFLVRESTNYPGDYTLCVSCDGKVEHYRIMYHASKLSIDEEVYFENLMQLVEHYTSDADGLCTRLIKPKVMEGTVAAQDEFYRSGWALNMKELKLLQTIGKGEFGDVMLGDYRGNKVAVKCIKNDATAQAFLAEASVMTQLRHSNLVQLLGVIVEEKGGLYIVTEYMAKGSLVDYLRSRGRSVLGGDCLLKFSLDVCEAMEYLEGNNFVHRDLAARNVLVSEDNVAKVSDFGLTKEASSTQDTGKLPVKWTAPEALREKKFSTKSDVWSFGILLWEIYSFGRVPYPRIPLKDVVPRVEKGYKMDAPDGCPPAVYEVMKNCWHLDAAMRPSFLQLREQLEHIKTHELHL
With B1 the cell migration was “causes inhibition of cell migration”.
